Source: the DeepSol protein solubility set

Assay: soluble on expression in E. coli; label from the status in PepcDB or PDB records

Sequence | soluble on expression in E. coli
MLVAYDSMTGNVKRFIHKLNMPAVQIDEDLVIDEDFILITYTTGFGNVPERVLDFLERNNEKLKGVSASGNRNWGDMFGASADKISTKYEVPIVSKFELSGTNNDVEYFKERVREIATH | soluble
RIIEINPEEGWVRVEAGVIKDQLNQFLKPYGYFFAPELSTSNRATLGGMINTDASGQGSLVYGKTSDHVLGLRAVLMGGDILDTQAVPVALAETLGNTPSTVGRIYNTVYQRCKAQRDLIIDKFPKLNRFLTGYDLRHVFNDEMSEFDLTRILTGSEGTLAFITEARLDITRLP | not soluble
STPELLSGHIPPGHIPKPIVMPDYVAKYPVIQTDDDRERYKAVFQDQFSEYKELSAEVQAILRKFDELDTVMSRLPHHSENRQEHERISRIHEEFRKKKNDPSFLEKKERCDYLKNKLSHIKQRIQEYDKVMNWDTQGYP | soluble
TPMYESTSELYVLSKSTSITSLADIQTGTSLTNDYIVVVKGRPVLDQVIENLNLNESYKTLGGRVTLDNPSNSRVLNITVTDPDPQMAKTIADEIAKVASAYIAEKMKQDPPTIIQSGYDDGGAVSPNIGKNT | not soluble
MEVEIKFKIKLEDFLHTLNTFNPEFVRYEEQEDVYFEVPRPKLLRIRGVHNLKKYYLTFKEILDENNEEFYEVEFEIGDFEKAVEVFKRLGFKIQATIKKKRWVYKLNGVTLEVNRVEGIGDFVDIEVISDSPEEAKEKIWEVAKMLGLKEEDVEPRLYLELINELSGRSSLEHHHHHH | soluble
MGSDKIHHHHHHMIRSLWTAKTGLESQQVKLDVISNNLSNVSTNGFKRSRPVFEDLLYQNVRQPGAQASAVDTLPSGLQVGTGVRPVATERLHTQGGLQNTDNSKDLAINGQGFFAVQMPDGTSAYTRDGSFQIDENGQMVTAGGYPLDPPIVIPENALSVSISQDGVVSVTQPGDTAAQEVGQLTLSKFINPAGLQSMGENLYQETDASGPRNDLIPGMEGAGRLYQGYVETSNVNVVEEMVSMIETQRAYEINSKAVETSDQMLSRLTQL | not soluble
MKNFMKYLEVSKEVKEALENNKPVVALESTIISHGMPFPQNYETALKVEKVIREAGAIPATIAILDGKLKVGLSAEEIEFLGKEGSKIIKVSRRDLPYIVANKLNGATTVATTMIVAEMAGVKVFATGGIGGVHRGAETTMDISADLEELSNTNVAVICAGAKSILDLGLTLEYLETHGVPVLGYQTKKLPAFFTRESEFDLDYKIDTPKELADIITAKWEMGLNGGVVIANPIPVEYSMDYDEISKSIEEAVKEAEAKGIKGKESTPFLLAKIKEITKGKSLEANIQLVYNNAKLASEIAGNMK | not soluble
SLSELMGKRVLIIDDNLTSQKILINQAQSWGMFTCAVDSGEKALEWLKRGITFDVAILDMNLPDMNGLELVREIRKQPNCTRLPLIMLSAITETEKTFQSSEEEFVAVLCKPVQRSQLYNVLMEIFSEIPRAPIRVTEG | soluble
MAHHHHHHMSVTASAAAAAAAAAASPRPPSSALYTERLFYAVLKQGNPSEARVEALAALALRHLPKSAETWAALRKALMEQSDLDGAPNRTLWYVLDALIKHAPHVFVPLVAPRLLEYTIQQLPWELAGHRGQTLLWFEALVLSWEKVLPQRLYSAVRQHAVQSRSGAELHDLLEAAENSVDDGTSASPADLQQLRDAWDAVQYMGEQEAGKSVFHARLIAAAVVVADEDGNSSLSPSPPVSGLYATPTGHNGRTAGAGTSGADIANTQQQQQQQEEDEYTPDFIEGAKPRELPKLDLPKLKRRREGRRRPREEDLGM | soluble
TGRVKWTLGGNIYLNRNKVDDISGNELLGTSYLAGGGVFSQSIHITKAGYPVGSFYGYVVDGVYQNEAEAKLAPFDTPQATPGSLRFKDISGPDGLPDGKITSDDMTIIGTAEPKFNYGINSELSWKGLTLSMIFTGRVGGDIANLNRYFLDSFTDTNDNIRAEAWEGRWQGEGTSNFYPAVNGSQGSSYFNKRFSTFLLEDGSFFRLKNLTLAYQFSLKKLRWLRSVRVFGTVTNVFTITNYSGYDPEVSITSGAMSPNVDYAAYPSSRTYSMGINLAF | not soluble
MNKLHKGWFTEFSPDDLEKMNGASDEEPTKVLKSDGQEMGGAWPGQAFSLQVKKVLFHEKSKYQDVLVFESTTYGNVLVLDGIVQATERDEFSYQEMLAHLPMFAHPDPKRVLIIGGGDGGILREVLKHESVEKVTMCEIDEMVIDVAKKFLPGMSCGFSHPKLDLFCGDGFEFLKNHKNEFDVIITDSSDPVGPAESLFGQSYYELLRDALKEDGILSSQGESVWLHLPLIAHLVAFNRKIFPAVTYAQSIVSTYPSGSMGYLICAKNANRDVTTPARTLTAEQIKALNLRFYNSEVHKAAFVLPQFVKNALE | soluble
MGSDKIHHHHHHMSSLPLQKSLYPLLRPLGAAYRVLMRARRRRYENGAACGTDVPCVSVGNIGWGGSGKTPVVQWLLQWAAVHGLHAVVLTRGYKASPPGLPYVVTPQSSAAHAGDEPLMLARSCPQATVVVDPVRSRSARWAQERLAPDFFVLDDGFQHVQVARDTDLVLLKKDDLHAEWGRVLPAGSWREGPEALSRAAAFCIKCGSGEFSGLVPDFENRLGSFGVPVFGFSLRPGALIPVCGAHEGAQLPAGAPYVLFSGVGDPAQVAVTVSSFLGYDPVRHHVFADHHGYTQADMDRMAGYGLPLVCTPKDAVKLTAPCGVPVWTLSLETNFHSVWNAQPPAGQAGEGFAQWWQCRWQRLAGLR | not soluble
MGSDKIHHHHHHMRKLAHNFYKPLAIGAPEPIRELPVRPERVVHFFPPHVEKIRARIPEVAKQVDVLCGNLEDAIPMDAKEAARNGFIEVVKATDFGDTALWVRVNALNSPWVLDDIAEIVAAVGNKLDVIMIPKVEGPWDIHFVDQYLALLEARHQIKKPILIHALLETAQGMVNLEEIAGASPRMHGFSLGPADLAASRGMKTTRVGGGHPFYGVLADPQEGQAERPFYQQDLWHYTIARMVDVAVAHGLRAFYGPFGDIKDEAACEAQFRNAFLLGCTGAWSLAPNQIPIAKRVFSPDVNEVLFAKRILEAMPDGSGVAMIDGKMQDDATWKQAKVIVDLARMIAKKDPDLAQAYGL | not soluble
MMLSTEGREGFVVKVRGLPWSCSADEVMRFFSDCKIQNGTSGIRFIYTREGRPSGEAFVELESEEEVKLALKKDRETMGHRYVEVFKSNSVEMDWVLKHTGPNSPDTANDGFVRLRGLPFGCSKEEIVQFFSGLEIVPNGMTLPVDFQGRSTGEAFVQFASQEIAEKALKKHKERIGHRYIEIFKSSRAEVRTHYDPPRKLMAMQRPGPYDRPGAGRGYNSIGRGAGFERMRRGAYGGGYGGYDDYGGYNDGYGFGSDRFGRDLNYCFSGMSDHRYGDGGSSFQSTTGHCVHMRGLPYRATENDIYNFFSPLNPMRVHIEIGPDGRVTGEADVEFATHEDAVAAMAKDKANMQHRYVELFLNSTAGTSGGAYDHSYVELFLNSTAGASGGAYGSQMMGGMGLSNQSSYGGPASQQLSGGYGGGYGGQSSMSGYDQVLQENSSDYQSNLA | soluble
MIQTPYYLIDADRLRQNMAVVDRLRQASGAKALLALKCFATWPAFEHMRDHMDGTTSSSLYELRLGREKFGKETHAYSVAWPDHEIDEAVGYADKIIFNSVGQLARFRNRTGGIARGLRLNPGLSTSGFDLADPARPFSRLGEWSAEKIEAVLPDISGVMIHYNCENADVDLFERQLSEIEGRFGAILDRLDWVSLGGGIHFTGEGYPVDRLAARLKAFAAAHGVQVYLEPGEAAITRSATLEVTVLDLLDNGKQLAIVDSSVEAHMLDLLIYRQSAKVEPDAGDHSYMVCGKSCLAGDIFGEFRFAQPLQVGDRLSIADAAGYTMVKKNWFNGVKMPSIVIREPDGSLRVAREFGYGDYASSLG | not soluble
MGSDKIHHHHHHVDALEVHRFLKGKIRTALPVEKVDRETLSLLYTPGVADVARACAEDPEKTYVYTSRWNTVAVVSDGSAVLGLGNIGPYGALPVMEGKAFLFKAFADIDAFPICLSESEEEKIISIVKSLEPSFGGINLEDIGAPKCFRILQRLSEEMNIPVFHDDQQGTAVVVSAAFLNALKLTEKKIEEVKVVVNGIGAAGYNIVKFLLDLGVKNVVAVDRKGILNENDPETCLNEYHLEIARITNPERLSGDLETALEGADFFIGVSRGNILKPEWIKKMSRKPVIFALANPVPEIDPELAREAGAFIVATGRSDHPNQVNNLLAFPGIMKGAVEKRSKITKNMLLSAVEAIARSCEPEPERIIPEAFDMKVHLNVYTAVKGSA | soluble
